Experimental data as given in patent US20220064329.

Molecular target: mAb0077(OA)
Sequence (chain, as listed by the source, chain 1 of 3): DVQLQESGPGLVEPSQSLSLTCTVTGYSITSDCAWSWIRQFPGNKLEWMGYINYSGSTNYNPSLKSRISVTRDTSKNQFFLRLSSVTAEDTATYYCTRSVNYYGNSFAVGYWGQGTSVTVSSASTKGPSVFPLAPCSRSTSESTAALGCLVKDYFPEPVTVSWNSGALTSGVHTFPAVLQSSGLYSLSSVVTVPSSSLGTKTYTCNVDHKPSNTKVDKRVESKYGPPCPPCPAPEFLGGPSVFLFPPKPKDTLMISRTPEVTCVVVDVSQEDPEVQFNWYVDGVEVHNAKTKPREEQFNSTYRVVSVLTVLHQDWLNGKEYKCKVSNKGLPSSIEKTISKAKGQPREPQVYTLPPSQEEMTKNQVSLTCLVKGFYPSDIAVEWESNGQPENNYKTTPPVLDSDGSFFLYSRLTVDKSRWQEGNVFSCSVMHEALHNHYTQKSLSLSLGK
Sequence (chain, as listed by the source, chain 2 of 3): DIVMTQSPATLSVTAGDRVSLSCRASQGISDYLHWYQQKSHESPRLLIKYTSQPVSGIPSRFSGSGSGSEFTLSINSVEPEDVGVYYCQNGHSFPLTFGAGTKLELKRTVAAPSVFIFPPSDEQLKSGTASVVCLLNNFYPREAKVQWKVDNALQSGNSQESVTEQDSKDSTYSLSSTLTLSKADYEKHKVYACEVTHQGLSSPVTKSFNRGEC
Sequence (chain, as listed by the source, chain 3 of 3): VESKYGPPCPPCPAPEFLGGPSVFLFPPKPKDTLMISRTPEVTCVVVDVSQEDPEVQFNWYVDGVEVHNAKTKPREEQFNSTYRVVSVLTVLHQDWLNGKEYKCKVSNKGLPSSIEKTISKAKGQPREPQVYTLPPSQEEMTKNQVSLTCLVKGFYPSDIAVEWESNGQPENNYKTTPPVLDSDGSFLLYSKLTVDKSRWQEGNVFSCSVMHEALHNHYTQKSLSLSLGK

B1: recombinant human activated Factor VII (FVIIa) (protein)
chain 1: ANAFLEELRPGSLERECKEEQCSFEEAREIFKDAERTKLFWISYSDGDQCASSPCQNGGSCKDQLQSYICFCLPAFEGRNCETHKDDQLICVNENGGCEQYCSDHTGTKRSCRCHEGYSLLADGVSCTPTVEYPCGKIPILEKRNASKPQGR
chain 2: IVGGKVCPKGECPWQVLLLVNGAQLCGGTLINTIWVVSAAHCFDKIKNWRNLIAVLGEHDLSEHDGDEQSRRVAQVIIPSTYVPGTTNHDIALLRLHQPVVLTDHVVPLCLPERTFSERTLAFVRFSLVSGWGQLLDRGATALELMVLNVPRLMTQDCLQQSRKVGDSPNITEYMFCAGYSDGSKDSCKGDSGGPHATHYRGTWYLTGIVSWGQGCATVGHFGVYTRVSQYIEWLQKLMRSEPRPGVLLRAPFP
Km of FX activation by FVIIa/PS:PC with 200 nM antibody: 0.089 µM
Km of FX activation by TF-FVIIa with 200 nM antibody: 0.0039 µM
kcat of FX activation by FVIIa/PS:PC with 200 nM antibody: 0.00026 s⁻¹
